Assay results taken from patent US20190359687A1 (Bayer, published 2019).
No end group written: not given here.

T1: human glycophorin A on human red blood cells or red blood cell membranes (human, UniProt P02724 20-150)
T1 construct: whole, on cells; also called hRBC; human RBC membranes
T1 sequence (looked up): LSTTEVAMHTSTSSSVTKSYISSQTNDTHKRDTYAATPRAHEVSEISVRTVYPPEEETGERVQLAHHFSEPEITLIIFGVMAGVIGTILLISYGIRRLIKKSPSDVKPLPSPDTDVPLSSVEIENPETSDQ

T2: GP10 peptide of the human GPA ectodomain (human, not fully specified (N-terminus))
T2 peptide: TVYPPEEE

T3: GP12 peptide of the human GPA ectodomain (human, not fully specified (N-terminus))
T3 peptide: YPPEEETG

T4: GP11 peptide of the human GPA ectodomain (human, not fully specified (N-terminus))
T4 peptide: VYPPEEET

T5: GP13 peptide of the human GPA ectodomain (human, not fully specified (N-terminus))
T5 peptide: PPEEETGE

T6: GP8 peptide of the human GPA ectodomain (human, not fully specified (N-terminus))
T6 peptide: VRTVYPPE

T7: GP16 peptide of the human GPA ectodomain (human, not fully specified (N-terminus))
T7 peptide: EETGERVQ

T8: GP7 peptide of the human GPA ectodomain (human, not fully specified (N-terminus))
T8 peptide: SVRTVYPP

T9: GP15 peptide of the human GPA ectodomain (human, not fully specified (N-terminus))
T9 peptide: EEETGERV

T10: GP9 peptide of the human GPA ectodomain (human, not fully specified (N-terminus))
T10 peptide: RTVYPPEE

T11: GP14 peptide of the human GPA ectodomain (human, not fully specified (N-terminus))
T11 peptide: PEEETGER


Experiments:
[1] = target: T1, human glycophorin A on human red blood …; experiment: Fab 7 ug/ml on intact human RBC, unbound Fab by ELISA; pre-dilution
Procedure: (§1) The binding of affinity matured Fab antibodies to intact human RBC was also measured. Human RBC were isolated from fresh anti-coagulated normal human blood by centrifugation through a ficol gradient and washing in PBS buffer. RBC diluted to 1/10th of normal hematocrit were incubated with purified Fab antibodies at a final concentration of 7 ug/ml for 1 hour at room temperature on a rotating shaker after which a sample was taken and the RBC were pelleted by centrifugation and the supernatant was collected. The remaining RBC suspension was diluted 200-fold in PBS buffer and incubated for a total of 2 hours at room temperature on a rotating shaker and samples were removed at 0, 5 min, 20 min, 1 h and 2 h and the RBC pelleted and the supernatant collected. The amount of Fab in the supernatants was then measured using an ELISA assay and the results used to calculate the percentage of the input Fab that was bound to the RBC. […] The percentage that remains bound after 200-fold dilution of the RBC suspension is an indication of the overall strength of the binding to human RBC.

[2] = target: T1, human glycophorin A on human red blood …; experiment: Fab on intact human RBC, unbound Fab by ELISA; 60 min after 200-fold dilution
Procedure: as §1

[3] = target: T2, GP10 peptide of the human GPA ectodomain; experiment: ELISA, Fab 0.5 ug/ml on biotin-peptide on streptavidin plate
Source text: (§2) These peptides were attached to the surface of a streptavidin coated plate via a biotin moiety that was present at the N-terminus of each peptide.

[4] = target: T3, GP12 peptide of the human GPA ectodomain; experiment: as above
Source text: as §2

[5] = target: T4, GP11 peptide of the human GPA ectodomain; experiment: as above
Source text: as §2

[6] = target: T5, GP13 peptide of the human GPA ectodomain; experiment: as above
Source text: as §2

[7] = target: T6, GP8 peptide of the human GPA ectodomain; experiment: as above
Source text: as §2

[8] = target: T7, GP16 peptide of the human GPA ectodomain; experiment: as above
Source text: as §2

[9] = target: T12, GP5 peptide of the human GPA ectodomain (human, N-terminal biotin); experiment: as above
T12 construct: Residues 42 to 61 of the human GPA extracellular domain
Source text: as §2

[10] = target: T8, GP7 peptide of the human GPA ectodomain; experiment: as above
Source text: as §2

[11] = target: T9, GP15 peptide of the human GPA ectodomain; experiment: as above
Source text: as §2

[12] = target: T1, human glycophorin A on human red blood …; experiment: Fab on intact human RBC, unbound Fab by ELISA; 0 min after 200-fold dilution
Procedure: as §1

[13] = target: T1, human glycophorin A on human red blood …; experiment: Fab on intact human RBC, unbound Fab by ELISA; 120 min after 200-fold dilution
Procedure: as §1

[14] = target: T2, GP10 peptide of the human GPA ectodomain; experiment: ELISA, Fab 0.05 ug/ml on biotin-peptide on streptavidin plate
Source text: as §2

[15] = target: T3, GP12 peptide of the human GPA ectodomain; experiment: as above
Source text: as §2

[16] = target: T4, GP11 peptide of the human GPA ectodomain; experiment: as above
Source text: as §2

[17] = target: T5, GP13 peptide of the human GPA ectodomain; experiment: as above
Source text: as §2

[18] = target: T10, GP9 peptide of the human GPA ectodomain; experiment: as above
Source text: as §2

[19] = target: T6, GP8 peptide of the human GPA ectodomain; experiment: as above
Source text: as §2

[20] = target: T7, GP16 peptide of the human GPA ectodomain; experiment: as above
Source text: as §2

[21] = target: T12, GP5 peptide of the human GPA ectodomain; experiment: as above
Source text: as §2

[22] = target: T8, GP7 peptide of the human GPA ectodomain; experiment: as above
Source text: as §2

[23] = target: T9, GP15 peptide of the human GPA ectodomain; experiment: as above
Source text: as §2

[24] = target: T11, GP14 peptide of the human GPA ectodomain; experiment: as above
Source text: as §2

[25] = target: T1, human glycophorin A on human red blood …; experiment: SPR (Biacore), Fab on human RBC membranes;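 note: human RBC membranes captured on an L1 sensor chip, Fab fragments passed over as analyte, binding kinetics read by surface plasmon resonance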
Procedure: Kinetic analysis of the antibody binding to human red blood cell membranes was also performed using surface plasmon resonance (SPR) using a Biacore instrument. In this assay membranes prepared from human red blood cells were attached to a L1 sensor matrix and antibodies were flowed over the RBC membranes.
The binding kinetics of the affinity matured Fab antibodies was also measured.

[26] = target: T1, human glycophorin A on human red blood …; experiment: Fab on intact human RBC, unbound Fab by ELISA; 5 min after 200-fold dilution
[27] = target: T1, human glycophorin A on human red blood …; experiment: Fab on intact human RBC, unbound Fab by ELISA; 20 min after 200-fold dilution
Procedure: as §1

percentage of input antibody bound [1] | percentage of input antibody bound [2] | binding signal in ELISA (relative light units) [3] | binding signal in ELISA (relative light units) [4] | binding signal in ELISA (relative light units) [5] | binding signal in ELISA (relative light units) [6] | binding signal in ELISA (relative light units) [7] | binding signal in ELISA (relative light units) [8] | binding signal in ELISA (relative light units) [9] | binding signal in ELISA (relative light units) [10] | binding signal in ELISA (relative light units) [11] | percentage of input antibody bound [12] | percentage of input antibody bound [13] | binding signal in ELISA (relative light units) [14] | binding signal in ELISA (relative light units) [15] | binding signal in ELISA (relative light units) [16] | binding signal in ELISA (relative light units) [17] | binding signal in ELISA (relative light units) [18] | binding signal in ELISA (relative light units) [19] | binding signal in ELISA (relative light units) [20] | Binder | further results
91% | 87% | 38 RLU | 0 RLU | 1 RLU | -1 RLU | 3370 RLU | 0 RLU | 6990 RLU | 1 RLU | 0 RLU | 88% | 88% | 7 RLU | -1 RLU | 0 RLU | 0 RLU | 7 RLU | 83 RLU | -1 RLU | TPP-7790, affinity matured 6C12 Fab (Fab, V domains shown, Tested as Fab with a 6xHIS tag) VH: EVQLVQSGAEVKKPGASVKVSCKASGYTFTTYAIHWVRQAPGQGLEWMGYINPSSGYTRYNPKFKHRVTMTRDKSTSTAYMELRSLRSDDTAVYYCWTGTRDYWGQGTTVTVSS VL: DIQLTQSPSFLSASVGDRVTITCRASSSVRYIYWFQQKPGKAPKLLIYATSFLQSGVPSRFSGSGSGTEYTLTISSLQPEDFATYYCHQRNSFPYTFGQGTKLEIK | binding signal in ELISA (relative light units) [21]: 2880 RLU; binding signal in ELISA (relative light units) [22]: 0 RLU; binding signal in ELISA (relative light units) [23]: -1 RLU; binding signal in ELISA (relative light units) [24]: -1 RLU; kon [25]: 8.58e+06 M⁻¹ s⁻¹; percentage of input antibody bound [26]: 89%; percentage of input antibody bound [27]: 88%
93% | 8% | 0 RLU | -1 RLU | 0 RLU | -1 RLU | 1 RLU | -1 RLU | 6680 RLU | 0 RLU | -1 RLU | 82% | 8% | 0 RLU | -1 RLU | -1 RLU | -1 RLU | -1 RLU | -1 RLU | 0 RLU | TPP-5906, humanized and germlined 6C12 Fab; VL: (S24R, A26S, S49A, P54Q, F95Y); VH: (I48M, D56G, D66G, L70M, T72R) (Fab, V domains shown, The text says that a 6xHIS tag is present on the Fabs in the peptide ELISA; it is not in the printed chains) VH: EVQLVQSGAEVKKPGASVKVSCKASGYTFTTYTIHWVRQAPGQGLEWMGYINPSSGYTRYNPKFKGRVTMTRDKSTSTAYMELRSLRSDDTAVYYCQTGTRDYWGQGTTVTVSS VL: DIQLTQSPSFLSASVGDRVTITCRASSSVSYIYWFQQKPGKAPKLLIYATSTLQSGVPSRFSGSGSGTEYTLTISSLQPEDFATYYCHQRNSFPYTFGQGTKLEIKR | binding signal in ELISA (relative light units) [21]: 2000 RLU; binding signal in ELISA (relative light units) [22]: -1 RLU; binding signal in ELISA (relative light units) [23]: -1 RLU; binding signal in ELISA (relative light units) [24]: -1 RLU; Kd [25]: 0.707 nM; koff [25]: 0.00504 s⁻¹; kon [25]: 7.14e+06 M⁻¹ s⁻¹; percentage of input antibody bound [26]: 28%; percentage of input antibody bound [27]: 4%
